The target of data set [1] is T1, GST-285F (m285 full length) (Mus musculus, UniProt Q9JHX2 SEQ:1-398). In words: EMSA; 20 mM HEPES, 40 mM KCl, 6 mM MgCl2, salmon sperm DNA; competed by unlabeled GC-box. To be noted: tags: GST N-terminal (pGEX 4T-3); label: 33P. From the text:
(§1) Sp1 is known to bind to a GC-box through its three zinc finger domains. The m285 cloned in the present invention has three zinc finger domains that share a very high homology with the Sp family, and therefore the protein was expected to bind to a GC-box. Thus, 285F, 285N, and 285C were expressed as GST fusion proteins in E. coli to examine their binding to a GC-box. GST fusion proteins purified with glutathione Sepharose, and as the GC box a DNA probe having the nucleotide sequence in the Waf-1 promoter region which sequence binds to Sp1 were used. DNA probe was prepared by labeling ds-(5′-TCGAAAGGAGGCGGGACCCGAGCT-3′/SEQ ID NO: 25) containing a GC-box sequence with 33-P. The DNA probe was reacted with GST-285F, GST-285N, and GST-285C described above in EMSA buffer (20 mM HEPES, 40 mM KCl, 6 MM MgCl₂, 1 mM EGTA, 1 mM DTT, 0.1% NP-40, 10% Glycerol, 0.15% BSA, 25 ng/μl sonicated salmon sperm DNA) for 20 minutes. To examine the presence of competitive inhibition, either an unlabeled GC-box DNA probe or unlabeled mutant GC-box DNA probe (ds-(5′-TCGAAAGGAGTTTTGACCCGGAGCT-3′/SEQ ID NO: 26)) was further added to a similar reaction system. Recombinant Sp1 was used as a positive control. The reactants were electrophoresed on 5% acrylamide gel and were exposed to imaging plates. Analyses were performed using BAS2000 imaging analyzer. […]
(In EMSA bound probe runs differently from free probe, usually more slowly.)

In data set [2] the target is GST-285N (m285 N-terminal) (Mus musculus, UniProt Q9JHX2 SEQ:1-278). The data set can be described thus: EMSA; no complex; lacks zinc fingers. Conditions: tags: GST N-terminal (pGEX 4T-3); label: 33P.
From the text: as §1

For data set [3], the target named is T2, Sp1 (UniProt P08047 P08047:2-785). In words: EMSA; positive control; competed by unlabeled GC-box. Conditions: label: 33P.
From the text: as §1

Data set [4] deals with T3, GST-285C (m285 C-terminal, three zinc fingers) (Mus musculus, UniProt Q9JHX2 SEQ:271-398). In words: EMSA; same buffer; competed by unlabeled GC-box. To be noted: tags: GST N-terminal (pGEX 4T-3); label: 33P.
From the text: as §1

Data set [5] has as its target T3, GST-285C (m285 C-terminal, three zinc …). In words: competition; unlabeled mutant competitor had no effect on complex with GC-box. To be noted: tags: GST N-terminal (pGEX 4T-3). An excerpt:
(§2) Sp1 is known to bind to a GC-box through its three zinc finger domains. The m285 cloned in the present invention has three zinc finger domains that share a very high homology with the Sp family, and therefore the protein was expected to bind to a GC-box. Thus, 285F, 285N, and 285C were expressed as GST fusion proteins in E. coli to examine their binding to a GC-box. GST fusion proteins purified with glutathione Sepharose, and as the GC box a DNA probe having the nucleotide sequence in the Waf-1 promoter region which sequence binds to Sp1 were used. DNA probe was prepared by labeling ds-(5′-TCGAAAGGAGGCGGGACCCGAGCT-3′/SEQ ID NO: 25) containing a GC-box sequence with 33-P. The DNA probe was reacted with GST-285F, GST-285N, and GST-285C described above in EMSA buffer (20 mM HEPES, 40 mM KCl, 6 MM MgCl₂, 1 mM EGTA, 1 mM DTT, 0.1% NP-40, 10% Glycerol, 0.15% BSA, 25 ng/μl sonicated salmon sperm DNA) for 20 minutes. To examine the presence of competitive inhibition, either an unlabeled GC-box DNA probe or unlabeled mutant GC-box DNA probe (ds-(5′-TCGAAAGGAGTTTTGACCCGGAGCT-3′/SEQ ID NO: 26)) was further added to a similar reaction system. Recombinant Sp1 was used as a positive control. The reactants were electrophoresed on 5% acrylamide gel and were exposed to imaging plates. Analyses were performed using BAS2000 imaging analyzer.
(§3) As a result of gel shift assay, bands that were considered to correspond to DNA-protein complex were observed when GST-285F, GST-285C, or recombinant Sp1 were reacted with the 33-P labeled GC-box DNA probe (FIG. 9; lanes 1, 4, and 9). No complex b and could be observed for GST-285N reacted with the GC-box DNA probe (FIG. 9; lane 7). The addition of unlabeled GC-box DNA probe vanished or decreased the complex bands of GST-285F, GST-285C, or recombinant Sp1, and the GC-box DNA probe (FIG. 9; lanes 2, 5, and 10). Further, the addition of unlabeled mutant GC-box DNA probe to a similar reaction system had no effect on the complex bands of GST-285F, GST-285C, or recombinant Sp1, and the GC-box DNA probe (FIG. 9; lanes 3, 6, and 11).

The target of data set [6] is T1, GST-285F (m285 full length). Described as above. Conditions: tags: GST N-terminal (pGEX 4T-3).
From the text: as §2, §3

Data set [7] deals with T2, Sp1. Described as above.
From the text: as §2, §3

T3 sequence (Q9JHX2 271-398): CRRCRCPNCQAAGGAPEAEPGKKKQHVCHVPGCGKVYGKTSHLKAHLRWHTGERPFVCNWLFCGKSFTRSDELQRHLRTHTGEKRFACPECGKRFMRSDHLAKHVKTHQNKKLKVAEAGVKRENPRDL
T1 sequence (Q9JHX2 whole entry, the tested form may be a part): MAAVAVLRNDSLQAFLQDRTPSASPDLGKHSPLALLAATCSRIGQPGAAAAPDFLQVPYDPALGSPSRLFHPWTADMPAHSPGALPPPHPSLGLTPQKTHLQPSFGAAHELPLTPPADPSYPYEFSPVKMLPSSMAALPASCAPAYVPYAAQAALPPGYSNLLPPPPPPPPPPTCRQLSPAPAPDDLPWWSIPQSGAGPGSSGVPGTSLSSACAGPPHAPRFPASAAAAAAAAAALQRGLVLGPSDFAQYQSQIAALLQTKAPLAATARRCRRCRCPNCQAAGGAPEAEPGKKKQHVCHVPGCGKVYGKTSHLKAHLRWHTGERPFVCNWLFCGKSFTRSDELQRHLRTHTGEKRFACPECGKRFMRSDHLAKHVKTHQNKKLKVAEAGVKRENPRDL
T2 sequence (P08047 2-785, one chain of several): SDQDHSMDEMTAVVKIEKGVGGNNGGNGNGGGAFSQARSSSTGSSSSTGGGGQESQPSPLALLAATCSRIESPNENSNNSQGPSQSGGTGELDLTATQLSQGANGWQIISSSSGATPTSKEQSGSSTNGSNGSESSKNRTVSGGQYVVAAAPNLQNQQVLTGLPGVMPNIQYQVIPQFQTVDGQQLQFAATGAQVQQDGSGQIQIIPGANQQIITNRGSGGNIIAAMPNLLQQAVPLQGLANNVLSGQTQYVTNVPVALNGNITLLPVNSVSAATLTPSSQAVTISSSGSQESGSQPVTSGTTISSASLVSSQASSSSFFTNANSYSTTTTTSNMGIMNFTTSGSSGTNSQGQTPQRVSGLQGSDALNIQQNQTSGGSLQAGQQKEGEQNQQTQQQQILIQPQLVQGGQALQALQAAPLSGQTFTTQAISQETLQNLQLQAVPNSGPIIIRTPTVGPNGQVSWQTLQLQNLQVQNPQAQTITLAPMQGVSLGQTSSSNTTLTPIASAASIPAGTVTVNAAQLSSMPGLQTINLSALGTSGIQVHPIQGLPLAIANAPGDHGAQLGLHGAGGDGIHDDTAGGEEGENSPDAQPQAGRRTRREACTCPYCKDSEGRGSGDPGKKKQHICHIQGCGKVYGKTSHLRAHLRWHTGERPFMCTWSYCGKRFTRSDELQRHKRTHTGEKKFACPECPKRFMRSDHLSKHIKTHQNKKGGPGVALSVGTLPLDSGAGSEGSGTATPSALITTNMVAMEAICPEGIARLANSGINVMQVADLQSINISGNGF
Chain of GST-285N (m285 N-terminal) (Q9JHX2 1-278): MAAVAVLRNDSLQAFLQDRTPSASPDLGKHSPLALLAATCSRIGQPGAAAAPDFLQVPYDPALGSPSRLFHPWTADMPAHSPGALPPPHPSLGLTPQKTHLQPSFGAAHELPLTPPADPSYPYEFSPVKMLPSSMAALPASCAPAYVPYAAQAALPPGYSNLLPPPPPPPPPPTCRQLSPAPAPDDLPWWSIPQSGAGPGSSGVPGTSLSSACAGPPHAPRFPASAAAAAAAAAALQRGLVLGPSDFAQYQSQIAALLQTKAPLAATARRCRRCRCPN

B1: Waf-1 promoter GC-box probe (dsDNA)
DNA 1: TCGAAAGGAGGCGGGACCCGAGCT
DNA 2: AGCTCGGGTCCCGCCTCCTTTCGA
With B1, the binding result in data set [1] was “binds”; in data set [2], “no binding”; with Sp1 [3], “binds”; in data set [4] it was “binds”.

B2: mutant GC-box (dsDNA)
DNA 1: TCGAAAGGAGTTTTGACCCGGAGCT
DNA 2: AGCTCCGGGTCAAAACTCCTTTCGA
For the molecule B2, the binding result (in data set [5]; in data set [6]; with Sp1 [7]) was “no binding” each time.

For the origin of these results see patent publication US20030162205, “Novel transcription factor having zinc finger domain” (published 2003).
